assay: soluble on expression in E. coli; label from the status in PepcDB or PDB records

Sequence	soluble on expression in E. coli
MGSDKIHHHHHHMLRRIKAEQLQVGMFVARLGGPWHARAFRRSRFLVTSEEQVGEIRSSGVDEVWIDILKGRNAPTPQAATSPWETPEPAPALATANSLPAEFGLARELLQSGKSVIGSMFADVRMGRALEVSGALLLVDSASQSLSRHSQALIALARLKARDDYSYMHAFAVCALMVAVGRTMELPPEEVRDLGLAGLLHDIGKLTLPEAVLHKPTSRRPGEDEEIKRHPSAGYRILNEARLNANIVLDVCVHHHERVDGRGYPFGLVGRELSVHARIAAICDTYDSLTSSRPGHQQWSPARAMEYMAVRVDTLFDSRVFKAFTRTVGIYPLGTVLRLRSNRLAVVCAQHESEPLRPRVMAFYSVSASSALTPEVIDLSTSDDTVVAFEDPADWGYTDEQLLAIYAGQGQAGAAQAAAMAMPAA	not soluble
MMSAVERRMEIVNVVNQDGKARVEDLAARFDVSSVTIRSDLSFLEKNGYVVRSHGAAIPNTGVIAELTVHEKRHQNIGTKSSIGYAAAQLIENGDTVILDSGTTTREIASNLKSLEQAVVMTNGLDVAMELASASGIEVLMSGGVLRKKALSFSGSQAEASLKNYRFDKVFLGVDGFDLRSGITTHNEQEASLNRLMCDISEQVIAVADSTKFGKRSCHMIREFGNIDILVTDSDIPEEYLQGLREMKVEVIIVEKEK	not soluble
MATVTKAPKKQIQFADDMQEFTKFPTKTGRRSLSRSISQSSTDSYSSAASYTDSSDDEVSPREKQQTNSKGSSNFCVKNIKQAEFGRREIEIAEQDMSALISLRKRAQGEKPLAGAKIVGCTHITAQTAVLIETLCALGAQCRWSACNIYSTQNEVAAALAEAGVAVFAWKGESEDDFWWCIDRCVNMDGWQANMILDDGGDLTHWVYKKYPNVFKKIRGIVEESVTGVHRLYQLSKAGKLCVPAMNVNDSVTKQKFDNLYCCRESILDGLKRTTDVMFGGKQVVVCGYGEVGKGCCAALKALGAIVYITEIDPICALQACMDGFRVVKLNEVIRQVDVVITCTGNKNVVTREHLDRMKNSCIVCNMGHSNTEIDVTSLRTPELTWERVRSQVDHVIWPDGKRVVLLAEGRLLNLSCSTVPTFVLSITATTQALALIELYNAPEGRYKQDVYLLPKKMDEYVASLHLPSFDAHLTELTDDQAKYLGLNKNGPFKPNYYRY	not soluble
MSEKETPSPVLDVKKEKNEETGIDEEKSSEDDCSKRSKVKSNPSKFSVNSILSPLESLVRVQQQLLKMAASKSGTPGTNAGVPGAFPYGPGRLPGNYFAGPFPGYSGAQPNWYNGNDPRFAAAAALLPCSIDPVRSAINHQFSMSSMSQRRKRRVLFSQAQVYELERRFKQAKYLTAPEREQLANSIRLTPTQVKIWFQNHRYKCKRQEKEKAMSGLGHSEDGSSPPPDNDDDDDKYSIEMDDKDDEEEEESEKPVLKPSGVFGLPYPPNAAAAAAAAAAAFNFPFAAQGPNPAYYMRW	not soluble
SLGQRPPIRRIVIDAAIPTKGITIVDVAKELYKVEGVKAVRITVDDVDVDVLGLAIVVEGVDIDYNELEDVLEKVGGVVHSVDEVVVGEYIPEAGRTA	soluble
MNVSFSTSSLSVSNSRTRLISFRETEHGDQKSSEEWKTSTKLEALGSMEGELAHLLSTCKPETLNHNKTELSGFRNLFARFLRAKPTVDWSKIEPLPEGAIRPYKSLGHVVDKELIASQLRKLVVVKLNGGLGTSMGCKGPKSVISVRNDLTFLDLTMQQIQTLNKTYGVDVPLVLMNSFNTNEDTQKVLKKYANVKVSVHTFSQSQYPRINRETLLPIVKSLEADDNECWYPPGHGNFYEAFHNSGLLDKFLADGKEYCFLSNIDNMGATVDLSILNFVLNPSPDQTAPEFLMEVTDKTRADVKGGTLIQYEGRLMLLEIAQVPKDYVDEFKSISKFRIFNTNNLWAKLDAMRKIVVENKLEMEVIVNPKHLDRGLDVIQLETAAGAAIKSFSGAVGVNVPRSRFLPVKKTSDLLLLMSNLYDIDNGSLTLSHQRSFPTTPLVKLGSSFDKVKDYLGRFNGIPDLLELDHLTVSGDVWFGKDVSLKGTVIIIANHGDRIDIPPGSILENKIVSGNLRILEH	not soluble
MKFGLFFLNFMNSKRSSDQVIEEMLDTAHYVDQLKFDTLAVYENHFSNNGVVGAPLTVAGFLLGMTKNAKVASLNHVITTHHPVRVAEEACLLDQMSEGRFAFGFSDCEKSADMRFFNRPTDSQFQLFSECHKIINDAFTTGYCHPNNDFYSFPKISVNPHAFTEGGPAQFVNATSKEVVEWAAKLGLPLVFRWDDSNAQRKEYAGLYHEVAQAHGVDVSQVRHKLTLLVNQNVDGEAARAEARVYLEEFVRESYSNTDFEQKMGELLSENAIGTYEESTQAARVAIECCGAADLLMSFESMEDKAQQRAVIDVVNANIVKYHSLEHHHHHH	soluble
MGSDKIHHHHHHMNNIIATILKYAGLEGKAVIPLKGATSSYVFRAGDSVFRIHTNPAWLEQEPDLVAHEVFALRATGRLGPDVENYQLTWEGEIPPWIQMTCLPGEVRLEPLNRAYLKQLAKTLVAIHQLPVPEARYQYAPYVTKRTVPFWAVQKEMWQRAVAEPPATSQQVRFIHRDFHPVNVLYESAEKYNVVDWINGCVGPIEADVAHCRLNLMLLESVEAADQFLAEYIAYSGFSYDRKWDLTAVFDFEPDTLNVYPGWKAYGKANISQGNVRERMENIVLKVYENDESGY	not soluble
MGSDKIHHHHHHMIYKADNNVRQKLVEMFDDFDSTIVLSYLQGHMGSAWVDNLENPTVAQITVGIFVFYAGNPNAEEAEELLYNLPDFTLAIVDSDEWKKRIETVHKGSIEKFQRFRFNKNPGDLDKEYIRDILSTLPQNYEMKKIDKDIAKASSFHALSEDFTSQFDSIDDFIDRGVGYAILNKGQVVSAATSFSIFDDGIEIEIASHPEHRRKGLAKIVASALILDCLDREKYPSWDGANVESVELAKKLGYTFKEPYDTYFIQIKK	not soluble
MRIWIDADACPKAAKELVCKFALKRKLEVWMVAGQPQVKPPFACVRLVVVESGMDAADDYLVEQAEPGDLAICSDVPLADRLIKKQVAALDPRGREFDARNMGDKLAMRNLMADLRDQGQMGGGQAPYGERDRQAFANALDRLLTRLQREADLRASQPHR	not soluble
MKKDNTVFNDLQASLKQAVAIRQGKMPPSRVFKVETVDVKATREKTHMSQTEFAKAIHVSVRTLQNWEQGHRNPTGPAVALLKIVASAPDIAVRALRTA	not soluble
MSLKITIYDLAELSGVSASAVSAILNGNWKKRRISAKLAEKVTRIAEEQGYAINRQASMLRSKKSHVIGMIIPKYDNRYFGSIAERFEEMARERGLLPIITCTRRRPELEIEAVKAMLSWQVDWVVATGATNPDKISALCQQAGVPTVNLDLPGSLSPSVISDNYGGAKALTHKILANSARRRGELAPLTFIGGRSSDHNTSERLRGFHDAHRELGLSVPQANILAPGYSKGHVEDCLQERFGSAKTLLQGIFVNSTISLEGVVRWLSQVGLTGSEQPPMGCFDWDPFVYLLGHDIDMVQQDVPAMLDAVFSIIDAGEASQQRIEIPPRLMSSSEGHHHHHH	soluble
MGSDKIHHHHHHMKPEIALNLWQLLWQEYSARVNHARTYQQMITTAGGTVANDHIAFRSLRLLVDSPQGEVNLGIDYLAQFAEALGYVAAGEYNFAQTHLYARYYRHPQQEEFNLPKLFISELIVDELPANIAQLISKTVSAIPHQLASPVTLLKKDAEIETIAKQLQQVFTRPWLPPRRSVVEEVNQVTQYGAWVLLHGYGVNHFTGYVNGQNTPEYPDIDTTASGLAHLGVPMKAEIEGNVACGLRQTATQAVTEMVTVLDDNSGVEIQIPWTYAYYEIAQRYPVEVEPGKQILFDAFLGSNAQQLFEMTRLSK	not soluble
MTQLKTQYPSLIIDASFITLAANATVKPQDKTYNTVNLLNRFFLIWLDVASRGLSHHHVLSHPFKDWMTNMLDFPYHHEFIEFLGRWTHILIALPKRHHGQVDTAIPRYLLVTIREKTGIVKLTTVQNTAFTTQSNQLKKQYGQFLLTESNNCCACPGCDRPLILTSGNLAAENYEVSAIEKDKDAEALNLIALCPDGFLTYQADRRKKIVTTLKNVKKILVSAHNSQQAISDMKLDSGIVSVLTSLNKLKCDEYNISYDSKQLTDKISPENNRTLYQLVKNQVIDNYLTIQKIIVNLDKQGKIDYEKIQYQTRSMYKKLKAAKHNNLAIFNTISEKLHLATLQDIYFCQMIVSYFIQKCEVLE	not soluble
MGSDKIHHHHHHMKIAFDVDVIKHLPITQMVRQVSEWGYKYIEQSPHPRINPFYKHPKAGRDTMQEYKRALQNYGVEISSFIVVYRWSGPDEERRRAAVTNWKRMIEIAVDMGVQVINTELSGTPDEPEICEEMWYRSMEELLPIVEREGIRIEIQSHPWDFCELNDETVDMVQSLRSDNVTYLYSAPHGFFYDKGQGDVARMLNYAGADLSHVLLADTHNHTLPCRYIMNPPGVNATIHQHIGLGEGEVDFDALFQALREMDFANRTFKVGGEAIITTSLFGYPEKMSVQAVETRERIERELLGR	not soluble
MEIKEFSACNLESLRKLYLDSRRDSFPWLKADSFRIEDFDRDSQGERIWLSEVLGNVVGFISIWEPDNFIHHLYVATEYQGQGVGSMLLNGAKMKYGNLSLKCMVQNQKALNFYSSQGFEIVSQVDDELGGYYYMSFSAQT	not soluble
MNSEALDNFEAPRFRPPDEPRMMKNYTTQFSPLDTPPPMNGTPPIAGMHHYLTDPDPSREMMDLPANISNFGRDDASLVLPANLMGGADTSLPNIDRYKMDLPSEIYPNDPMPRGISTPPMNMKFNLGENIGRDVDRGVMNGFGAERQYQDPMIEIEQNLGNIRFESGNEKIKATITKFDEDYYGNEICAQCQAEDAYMDRMRRQAEEERRKYEETMKRAKMYEDLTREKEETFKREEAERNKALRDHVDRVNAEMIEMKKRRPKSPVLENYIFRHESPRSRDVEVRTRKDAYRAELDRQVEEKRLRRIAEFEKNEAIDATSNARAALEFANAREAERKSIEHAKEMARKQLEFQMEMSRVGAPSDKNWLWWAERPDEHGWRDARLKGLKHTNQVERNQTFKQSIGMLEEFKARQAHDDMVMRDNRRAKYDKLRDQLHENSKMLYPLTKTESRPIIVQPDPRVEAAWREAHEKYDRKFAVLQDNAMKSISGAALDGVAHATTSCRRCARCARPMERKTTLFVNRGETILPHQANWHS	not soluble
MAGNHTNRPGLRKTNKKGATKGSGAVRRRGLKGKGPTPKAEDREYHAAYKKKMERKRRDQGRHVKEETSELVVGRNPVVECLHAKVPATT	not soluble
MGSDKIHHHHHHMNHNLTTLHPYPFAKMATLLADSTPAHSYDEIKLGIGEPKHAPPAFVLDVLRENLDKISHYPTTNGLFELRQTIAHWLEKRFFLNHVNPNTQVLPVMGTREAIFSIVQAVINHQTETISQTATLNQSPVVVMPNPFYQIYEGAAILAQATPYFIPCTADNGFKGDFRSVPKDVWMRTQLLFVCSPNNPTGSVMTMDDWEQLLRLSDQYGFIIASDECYSELYFDKAPIGLLQACAALGRHDFKNCLVFHSLSKRSNLPGLRSGFVAGDATILDSYLQYRTYQGCAMPIPHQLASIAAWEDEKHVAHNRALYQEKFALWMSELGALLDLRMPEAGFYFWIKAPEQFDGDDELFVKALYEHANIHALAGRYLSREVNGKNPGQGYVRIALVASVEESREAIRRIRQLLGA	not soluble
MKVLPMLLALAVPGLCWAEDPQTFEGAGVVFEVQVEKNLVDIDHRLYRLPNSTVRNGMPSLFQVKPGSVVSYSGTVSQPWSTITDIYIHKQMSEQELAEMIEKEQPRQDGEEQPR	not soluble
PERESVRHKQPKSKEKKNAEKHIPHGIKCFVHAPEKYEWRWMGDEYVHALTPNVLEMVECLKANGIRLHTAGITVGMQKGKDLVPAPALALSTEMDDHSFFDMEFSRDEALSYLARQSVTTMPDLPLGFVLATFRRRPLGFLKNLGTRANNLYPQDWRIRNLETSEDCMEAKD	not soluble

— the DeepSol protein solubility set
